Measurements as given in paper PMC7956451 (International Journal of Molecular Sciences, 2021).

Target: T1, CMVpp65_(495-503)/HLA-A*02:01 single-chain trimer (SCT) protein (Homo sapiens HLA-A*02:01 (BC019236) and …, UniProt P06725;P61769;Q8WUX3, stabilised)
T1 construct: source: HEK293F, transfected, purified from culture supernatant (Ni-NTA)
Assay: BLI; Abs (mouse IgG2a/κ) immobilised, soluble pMHC SCT as analyte; pH 7.4; Octet QKe; global fit, 1:1 Langmuir model
Settings: both partners purified

B1: H9 TCR-like antibody in mouse IgG2a/κ format (antibody, V domains shown)
VH: EVQLVQSGAEVKKPGSSVKVSCKASGGTFSSYAISWVRQAPGQGLEWMGGIIPIFGTANYAQKFQGRVTITADESTSTAYMELSSLRSEDTAVYYCARGDLYYYDSSGYPRYYFDYWGQGTLVTVSS
VL: ETTLTQSPGTLSLSPGERATLSCRASQSVSSSYLAWYQQKPGQAPRLVIYGASSRATGIPDRFSGSGSGTDFTLTISRLEPEDFAVYYCQHYSTSPGFTFGQGTKLEIR
notes: also called parental H9; H9 Ab
Kd: 348 ± 33 nM
koff: 0.0022 s⁻¹
kon: 6300 M⁻¹ s⁻¹
